Laboratory results published in publication PMC4256047, “Structural and Functional Profiling of Environmental Ligands for Estrogen Receptors” (Environmental Health Perspectives, 2014).
Where no end group is shown, it is not given here. fluorescein = fluorescein label on the N-terminus of the peptide

Legend:
Settings in all cases: both partners purified
[1] = biological target: T1, human wt-ERβ LBD (estrogen receptor beta ligand-binding domain, amino acids 261-502) (human, UniProt Q92731 261-502); test: fluorescence polarisation; fluorescence anisotropy; 4 nM fluorescein-SRC-1 NR2 peptide, LBD diluted 2-fold from 10 uM (ERα) or 20 uM (ERβ); in the absence of ligand (apo-receptor); 20 mM Tris pH 8.0, 150 mM NaCl, 5 mM DTT, 10% glycerol
T1 construct: Cloned into pET-32a; N-terminal thioredoxine-hexahistidine tag removed with TEV protease; not shown: thioredoxin, N-terminal, cleaved; His6, N-terminal, cleaved

[2] = biological target: T2, human wt-ERα LBD (estrogen receptor alpha ligand-binding domain, amino acids 302-552) (human, UniProt P03372 302-552); test: as above
T2 sequence (looked up): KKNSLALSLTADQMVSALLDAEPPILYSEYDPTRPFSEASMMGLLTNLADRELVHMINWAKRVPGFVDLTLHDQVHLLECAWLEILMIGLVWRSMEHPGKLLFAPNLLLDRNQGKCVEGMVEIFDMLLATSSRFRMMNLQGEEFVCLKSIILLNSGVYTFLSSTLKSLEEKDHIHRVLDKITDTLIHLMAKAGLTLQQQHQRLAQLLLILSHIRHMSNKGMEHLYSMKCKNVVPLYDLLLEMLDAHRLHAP

[3] = biological target: T1, human wt-ERβ LBD (estrogen receptor …); test: fluorescence polarisation; fluorescence anisotropy; 4 nM fluorescein-SRC-1 NR2 peptide, LBD diluted 2-fold from 10 uM (ERα) or 20 uM (ERβ); with BPC at 20 uM (ERα) or 40 uM (ERβ); 20 mM Tris pH 8.0, 150 mM NaCl, 5 mM DTT, 10% glycerol
[4] = biological target: T2, human wt-ERα LBD (estrogen receptor …); test: as above
[5] = biological target: T1, human wt-ERβ LBD (estrogen receptor …); test: fluorescence polarisation; fluorescence anisotropy; 4 nM fluorescein-SRC-1 NR2 peptide, LBD diluted 2-fold from 10 uM (ERα) or 20 uM (ERβ); with HPTE at 20 uM (ERα) or 40 uM (ERβ); 20 mM Tris pH 8.0, 150 mM NaCl, 5 mM DTT, 10% glycerol
[6] = biological target: T2, human wt-ERα LBD (estrogen receptor …); test: fluorescence polarisation; fluorescence anisotropy; 4 nM fluorescein-SRC-1 NR2 peptide, LBD diluted 2-fold from 10 uM (ERα) or 20 uM (ERβ); with DDE at 20 uM (ERα) or 40 uM (ERβ); 20 mM Tris pH 8.0, 150 mM NaCl, 5 mM DTT, 10% glycerol
[7] = biological target: T1, human wt-ERβ LBD (estrogen receptor …); test: fluorescence polarisation; fluorescence anisotropy; 4 nM fluorescein-SRC-1 NR2 peptide, LBD diluted 2-fold from 10 uM (ERα) or 20 uM (ERβ); with 4-OP at 20 uM (ERα) or 40 uM (ERβ); 20 mM Tris pH 8.0, 150 mM NaCl, 5 mM DTT, 10% glycerol
[8] = biological target: T1, human wt-ERβ LBD (estrogen receptor …); test: fluorescence polarisation; fluorescence anisotropy; 4 nM fluorescein-SRC-1 NR2 peptide, LBD diluted 2-fold from 10 uM (ERα) or 20 uM (ERβ); with BBP at 20 uM (ERα) or 40 uM (ERβ); 20 mM Tris pH 8.0, 150 mM NaCl, 5 mM DTT, 10% glycerol

T1 sequence (Q92731 261-502): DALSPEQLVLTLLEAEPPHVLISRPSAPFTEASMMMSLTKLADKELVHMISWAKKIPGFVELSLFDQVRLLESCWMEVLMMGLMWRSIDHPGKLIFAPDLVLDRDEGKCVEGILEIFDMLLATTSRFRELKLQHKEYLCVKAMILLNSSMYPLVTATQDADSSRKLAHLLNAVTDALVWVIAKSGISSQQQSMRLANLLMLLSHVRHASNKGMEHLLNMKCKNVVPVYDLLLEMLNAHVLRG

- Kd [1]: 4.54 µM
- Kd [2]: 6.28 µM
- Kd [3]: 6.32 µM
- Kd [4]: 9.07 µM
- Kd [5]: 10.9 µM
- Kd [6]: 4.1 µM
- Kd [7]: 1.55 µM
- Kd [8]: 10.6 µM
B1: fluorescein-RHKILHRLLQEGS peptide corresponding to the NR box 2-binding motif of SRC-1 (peptide)
peptide: fluorescein-RHKILHRLLQEGS
notes: also called SRC-1 NR2 peptide; fluorescein-labeled SRC-1 NR2 peptide; source: bought: EZbiolab
